Substrate: CC1=CC(=O)c2ccccc2C1=O
Experiment: enzyme kinetics (KM) by BNAH fluorescence decrease; reference substrate
Type: biochemical, Homo sapiens
Conditions: FAD; pH 8.5; 37.0 °C

B1: human quinone reductase 2 (hQR2) (Homo sapiens) (protein)
chain: MAGKKVLIVYAHQEPKSFNGSLKNVAVDELSRQGCTVTVSDLYAMNLEPRATDKDITGTLSNPEVFNYGVETHEAYKQRSLASDITDEQKKVREADLVIFQFPLYWFSVPAILKGWMDRVLCQGFAFDIPGFYDSGLLQGKLALLSVTTGGTAEMYTKTGVNGDSRYFLWPLQHGTLHFCGFKVLAPQISFAPEIASEEERKGMVAAWSQRLQTIWKEEPIPCTAHWHFGQ
notes: 6his-hQR2
- Km: 10 ± 1 µM

Source: article PMC6155775, “Role of Quinone Reductase 2 in the Antimalarial Properties of Indolone-Type Derivatives” (Molecules : A Journal of Synthetic Chemistry and Natural …, 2017)
